In paper PMC10043283, “Neuraminidase 1 promotes renal fibrosis development in male mice” (Nature Communications, 2023):

Target: T1, Human NEU1 recombinant protein (human, UniProt Q99519 48-415)
T1 construct: human neuraminidase 1 (NEU1), recombinant; Amine-coupled to a CM5 chip; also called recombinant human NEU1; source: recombinant protein, gifted by Dr. Xiao Yibei lab
Assay: SPR; Biacore T200, 25 °C, HBS-EP+ pH 7.4; human NEU1 amine-coupled to CM5 chip (8000–10,000 RU); ALK5 recombinant proteins flowed at 7.80–500 nM; 1:1 binding model
Settings: both partners purified

B1: human ALK5_(162-403aa) recombinant protein (domain or fragment, UniProt P36897 162-403, looked up)
chain: EDPSLDRPFISEGTTLKDLIYDMTTSGSGSGLPLLVQRTIARTIVLQESIGKGRFGEVWRGKWRGEEVAVKIFSSREERSWFREAEIYQTVMLRHENILGFIAADNKDNGTWTQLWLVSDYHEHGSLFDYLNRYTVTVEGMIKLALSTASGLAHLHMEIVGTQGKPAIAHRDLKSKNILVKKNGTCCIADLGLAVRHDSATDTIDIAPNHRVGTKRYMAPEVLDDSINMKHFESFKRADIYA
notes: human ALK5 (TGFβ type I receptor), amino acids 162-403; also called amino acid 162–403 region of ALK5; source: bought: Sino Biological Inc
  Kd: 3.14 nM
